Reference: patent US20150017095A1 (AbbVie / Abbott, published 2015)

How the values were obtained:
Recombinant Human IL-1β [1] = target: T1, Recombinant Human IL-1β (human, UniProt P01584 117-269); experiment: direct bind ELISA, antigen coated on plate
T1 construct: also called IL-1b; IL-1B
Description: (§1) Enzyme Linked Immunosorbent Assays to screen for antibodies that bind a desired target antigen were performed as follows. High bind ELISA plates (Corning Costar #3369, Acton, Mass.) were coated with 100 μL/well of 10 μg/ml of desired target antigen (R&D Systems, Minneapolis, Minn.) or desired target antigen extra-cellular domain/FC fusion protein (R&D Systems, Minneapolis, Minn.) or monoclonal mouse anti-polyHistidine antibody (R&D Systems # MAB050, Minneapolis, Minn.) in phosphate buffered saline (10×PBS, Abbott Bioresearch Center, Media Prep# MPS-073, Worcester, Mass.) overnight at 4° C. Plates were washed four times with PBS containing 0.02% Tween 20. Plates were blocked by the addition of 300 μL/well blocking solution (non-fat dry milk powder, various retail suppliers, diluted to 2% in PBS) for ½ hour at room temperature. Plates were washed four times after blocking with PBS containing 0.02% Tween 20.
(§2) Plates were washed 4 times with PBS containing 0.02% Tween 20.
(§3) One hundred microliters of enhanced TMB solution (Neogen Corp. #308177, K Blue, Lexington, Ky.) was added to each well and incubated for 10 minutes at room temperature. The reaction was stopped by the addition of 50 μL 1N sulphuric acid.

Recombinant Human IL-1β [2] = target: T1, Recombinant Human IL-1β; experiment: BIACORE SPR, antibody captured, antigen in flow
Description: (§4) The BIACORE assay (Biacore, Inc, Piscataway, N.J.) determines the affinity of antibodies or DVD-Ig with kinetic measurements of on-rate and off-rate constants. […] All chemicals are obtained from Biacore® AB (Uppsala, Sweden) or otherwise from a different source as described in the text. For example, approximately 5000 RU of goat anti-mouse IgG, (Fcγ), fragment specific polyclonal antibody (Pierce Biotechnology Inc, Rockford, Ill.) diluted in 10 mM sodium acetate (pH 4.5) is directly immobilized across a CM5 research grade biosensor chip using a standard amine coupling kit according to manufacturer's instructions and procedures at 25 μg/ml. Unreacted moieties on the biosensor surface are blocked with ethanolamine. Modified carboxymethyl dextran surface in flowcell 2 and 4 is used as a reaction surface. Unmodified carboxymethyl dextran without goat anti-mouse IgG in flow cell 1 and 3 is used as the reference surface. For kinetic analysis, rate equations derived from the 1:1 Langmuir binding model are fitted simultaneously to association and dissociation phases of all eight injections (using global fit analysis) with the use of Biaevaluation 4.0.1 software. Purified antibodies or DVD-Ig are diluted in HEPES-buffered saline for capture across goat anti-mouse IgG specific reaction surfaces. Antibodies or DVD-Ig to be captured as a ligand (25 μg/m) are injected over reaction matrices at a flow rate of 5 μl/min. The association and dissociation rate constants, kₒₙ (M⁻¹s⁻¹) and koff (s⁻¹) are determined under a continuous flow rate of 25 μl/min. Rate constants are derived by making kinetic binding measurements at different antigen concentrations ranging from 10-200 nM. The equilibrium dissociation constant (M) of the reaction between antibodies or DVD-Igs and the target antigen is then calculated from the kinetic rate constants by the following formula: KD=koff/kₒₙ. Binding is recorded as a function of time and kinetic rate constants are calculated.

Recombinant Human β-NGF [3] = target: T2, Recombinant Human β-NGF (human, UniProt P01138 122-239, limits assumed); experiment: direct bind ELISA, antigen coated on plate (N-terminal VD)
Description: as §1, §2, §3

Recombinant Human β-NGF [4] = target: T2, Recombinant Human β-NGF; experiment: BIACORE SPR, DVD-Ig captured, antigen in flow (N-terminal VD)
Description: as §4

Recombinant Human β-NGF [5] = target: T2, Recombinant Human β-NGF; experiment: direct bind ELISA, antigen coated on plate
Description: as §1, §2, §3

Recombinant Human β-NGF [6] = target: T2, Recombinant Human β-NGF; experiment: BIACORE SPR, antibody captured, antigen in flow
Description: as §4

Recombinant Human β-NGF [7] = target: T2, Recombinant Human β-NGF; experiment: BIACORE SPR, antibody captured, antigen in flow; Biacore, antibody captured, 25 C, HBS-EP
Description: as §4, with “For kinetic analysis, rate equations derived from the 1:1 Langmuir binding model are fitted simultaneously to association and dissociation phases of all eight injections (using global fit analysis) with the use of Biaevaluation 4.0.1 software. Purified antibodies or DVD-Ig are diluted in HEPES-buffered saline for capture across goat anti-mouse IgG specific reaction surfaces. Antibodies or DVD-Ig to be captured as a ligand (25 μg/m) are injected over reaction matrices at a flow rate of 5 μl/min.” left out, “Rate constants are derived by making kinetic binding measurements at different antigen concentrations ranging from 10-200 nM.” left out

T2 sequence (P01138 122-239 limits assumed): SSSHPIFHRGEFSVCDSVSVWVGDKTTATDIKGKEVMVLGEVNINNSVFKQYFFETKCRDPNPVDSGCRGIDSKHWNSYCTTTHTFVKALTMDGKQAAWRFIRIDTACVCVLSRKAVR

B1: AB032 anti-IL-1b parent antibody (antibody, human IgG1, V domains shown)
VH: QVQLVESGGGVVQPGRSLRLSCAASGFTFSVYGMNWVRQAPGKGLEWVAIIWYDGDNQYYADSVKGRFTISRDNSKNTLYLQMNGLRAEDTAVYYCARDLRTGPFDYWGQGTLVTVSS
VL: EIVLTQSPDFQSVTPKEKVTITCRASQSIGSSLHWYQQKPDQSPKLLIKYASQSFSGVPSRFSGSGSGTDFTLTINSLEAEDAAAYYCHQSSSLPFTFGPGTKVDIKR
Q: With B1 as the binder, how does the EC50 (Recombinant Human IL-1β [1]) read?
A: 5.27 nM

Q: What about the Kd (Recombinant Human IL-1β [2]) of the same binder?
A: 0.0131 nM

B2: DVD164 (NGF / PGE2 DVD-Ig) (bispecific antibody)
VH: QVQLQESGPGLVKPSETLSLTCTVSGFSLIGYDLNWIRQPPGKGLEWIGIIWGDGTTDYNSAVKSRVTISKDTSKNQFSLKLSSVTAADTAVYYCARGGYWYATSYYFDYWGQGTLVTVSSASTKGPEVQLVQSGAEVKKPGASVKVSCKASGYTFTKYWLGWVRQAPGQGLEWMGDIYPGYDYTHYNEKFKDRVTLTTDTSTSTAYMELRSLRSDDTAVYYCARSDGSSTYWGQGTLVTVSS
VL: DIQMTQSPSSLSASVGDRVTITCRASQSISNNLNWYQQKPGKAPKLLIYYTSRFHSGVPSRFSGSGSGTDFTFTISSLQPEDIATYYCQQEHTLPYTFGQGTKLEIKRTVAAPDVLMTQTPLSLPVTPGEPASISCTSSQNIVHSNGNTYLEWYLQKPGQSPQLLIYKVSNRFSGVPDRFSGSGSGTDFTLKISRVEAEDVGVYYCFQVSHVPYTFGGGTKVEIKR
notes: Outer domain is AB020 (NGF), inner domain is AB048 (PGE2); also called VD164H; VD164L
Q: Which results are given for B2?
A: EC50 (Recombinant Human β-NGF [3]): 1.21 nM; Kd (Recombinant Human β-NGF [4]): 0.248 nM; koff (Recombinant Human β-NGF [4]): 0.000103 s⁻¹; kon (Recombinant Human β-NGF [4]): 414000 M⁻¹ s⁻¹

B3: AB020 anti-NGF parent antibody (antibody, human IgG1, V domains shown)
VH: QVQLQESGPGLVKPSETLSLTCTVSGFSLIGYDLNWIRQPPGKGLEWIGIIWGDGTTDYNSAVKSRVTISKDTSKNQFSLKLSSVTAADTAVYYCARGGYWYATSYYFDYWGQGTLVTVSS
VL: DIQMTQSPSSLSASVGDRVTITCRASQSISNNLNWYQQKPGKAPKLLIYYTSRFHSGVPSRFSGSGSGTDFTFTISSLQPEDIATYYCQQEHTLPYTFGQGTKLEIKR
Q: With B3 as the binder, how does the EC50 (Recombinant Human β-NGF [5]) read?
A: 2.59 nM

Q: What about the koff (Recombinant Human β-NGF [6]) of the same binder?
A: 0.000112 s⁻¹

Q: And the kon (Recombinant Human β-NGF [6])?
A: 261000 M⁻¹ s⁻¹

Q: What about the Kd (Recombinant Human β-NGF [7]) of the same binder?
A: 0.428 nM
